# Experimental data taken from article PMC8755526.
# Tests used:
# [1] = molecular target: PLK1 Polo-Box domain (Flag- or Myc-tagged) (human); experiment: co-IP; lysates of cells co-expressing differently tagged PLK1 PBD incubated with increasing amounts of purified GST-Bora, then co-IP
# [2] = molecular target: PLK1-T210E fused to CFP, YFP or mTurquoise 2 (human) (UniProt P53350); experiment: FRET or BRET; FRET by confocal microscopy of fixed HEK293T cells co-transfected with YFP and mTurquoise constructs; 'FRET and co-localization analyzer' ImageJ plug-in
# [3] = molecular target: endogenous PLK1 of HeLa-PLK1–3xMyc cells (human (endogenous in HeLa)) (UniProt P53350); experiment: SEC; lysate of HeLa-PLK1–3xMyc cells synchronized in G2 with the CDK1 inhibitor RO3306; Superose 3.2/300, 50 mM Tris pH 7.5, 150 mM NaCl, 20 mM CHAPS, 1 mM DTT, 4 °C; fractions blotted
# [4] = molecular target: full-length, wild-type PLK1 (Flag-, Myc- or V5-tagged) (human) (UniProt P53350); experiment: cross-linking; BS3 (20:1 crosslinker-protein) added to lysates of HEK293T cells for 30 min, quenched; IPs with anti-V5 and anti-Myc; SDS-PAGE and western blot with PLK1- and Bora-specific antibodies
substance,measurement,setting,value
PLK1 Polo-Box domain (Flag- or Myc-tagged) (domain or fragment),increase of co-precipitated PBD with purified GST-Bora added (lane 2) against none (lane 1),[1],60%
"PLK1-T210E fused to CFP, YFP or mTurquoise 2 (from UniProt P53350 1-603) (enzyme)",fold decrease of FRET emission against WT PLK1,[2],6 to 8 fold
endogenous PLK1 of HeLa-PLK1–3xMyc cells (from UniProt P53350 1-603) (enzyme),stoichiometry N,[3],2
"full-length, wild-type PLK1 (Flag-, Myc- or V5-tagged) (from UniProt P53350 1-603) (enzyme)",stoichiometry N,[4],2
